Source: the supplement of paper PMC10567573

B1: CASP6 (parent)
chain: TCADRDNLTRRFSDLGFEVKCFND

Variants of: B1
Test: protein stability index of a GFP-peptide fusion (GPS, HEK-293T) (PSI 1-6); higher = more stable
Conditions: c terminus: a fixed tail appended
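Also: lentivirally expressed fusions sorted by FACS into six bins by GFP to DsRed ratio, PSI derived from sequencing read proportions per bin multiplied by bin number.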

Protein stability index of substitutions, site by site:
N7: R 2.98 | W 2.52 | V 3.04 | C 3.13 | D 3.41
C2: W 2.36 | L 3.25 | R 3.74 | K 3.51 | A 4.04 | S 3.88 | I 3.35 | N 4.32 | T 3.54 | P 4.04 | V 3.93 | H 3.71 | Q 3.43 | M 3.38 | D 3.81 | F 3.16 | E 4.84 | Y 3.23 | G 3.47
L8: N 2.38 | M 3.03 | S 3.82 | F 2.45 | Q 4.08 | E 4.42 | K 3.6 | V 3.37 | R 4.07 | A 3.38 | Y 2.91 | I 3.31 | H 3.28 | W 2.79 | D 4.06 | T 3.49 | G 3.66 | P 3.52 | C 2.99
D6: Y 2.44 | R 3.16 | H 3.08 | L 3.06 | E 3.56 | C 2.43 | A 2.76 | Q 3.44 | W 2.09 | N 2.29 | V 2.38 | T 3.2 | P 3.68 | K 2.75 | F 2.51 | M 3.09 | I 2.96 | S 3.01 | G 3.47
T1: D 4.37 | R 3.06 | Q 4.05 | V 2.92 | P 3.67 | K 3.07 | M 3.58 | G 3.2 | C 2.88 | W 2.32 | A 3.73 | I 2.73 | F 2.18 | H 3.37 | N 3.03 | Y 2.15 | E 3.74 | S 3.28 | L 3.1
D14: H 2.4 | A 3.23 | C 2.91 | L 2.5 | E 3.34 | M 1.97 | K 3.36 | F 2.07 | G 3.46 | I 2.79
D4: I 2.24 | E 3.74 | R 2.95 | V 3.05 | P 2.75 | S 3.02 | N 3.17 | W 3.54 | Q 3.36 | Y 2.44 | G 3.28 | K 3.37 | M 2.08 | F 2.78 | C 1.58 | A 2.61 | H 2.96 | L 2.21 | T 2.64
R11: C 2.66 | I 2.47 | T 3.2 | S 3.57 | A 3.5 | L 3.12 | V 2.76 | P 3.68 | Y 2.35 | E 4.2 | D 4.12 | F 2.33 | Q 3.5 | M 3.79 | G 3.36 | H 3.5 | K 3.65 | W 1.62 | N 3.76
R5: N 3.33 | D 4.21 | C 2.65 | K 3.77 | A 4.37 | H 2.86 | T 3.48 | L 3.5 | W 2.62 | I 2.71 | P 3.98 | Y 2.92 | S 3.8 | V 3.5 | E 3.58 | G 3.64 | M 3.6 | F 2.43 | Q 3.44
T9: V 3.58 | A 3.3 | K 3.12 | W 2.34 | P 3.62 | F 1.94 | L 3.12 | N 2.83 | G 3.47 | S 3.25 | C 2.87 | Q 3.49 | E 3.75 | I 2.69 | H 3.03 | M 2.54 | Y 2.41 | D 3.51 | R 3.36
